This note sets out measurements from the supplement of paper PMC7877785.

The data set can be described thus: self-splicing fitness, log relative to wild type (ln ratio); higher = more splicing; Tetrahymena group I intron in knt gene, E. coli kanamycin selection, DiMSum; sequences stand for … in CUCUCU…GGAGGGAAAAGUUAUCAGGCAUGCACCUGGUAGCUAGUCUUUAAACCAAUAGAUUGCAUCGGUUUAAAAGGCAAGACCGUCAAAUUGCGGGAAAGGGGUCAACAGCCGUUCAGUACCAAGUCUCAGGGGAAACUUUGAGAUGGCCUUGCAAAGGGUAUGGUAAUAAGCUGACGGACAUGGUCCUAACCACGCAGCCAAGUCCUAAGUCAACAGAUCUUCUGUUGAUAUGGAUGCAGUUCACAGACUAAAUGUCGGUCGGGGAAGAUGUAUUCUUCUCAUAAGAUAUAGUCGGACCUCUCCUUAAUGGGAGCUAGCGGAUGAAGUGAUGCAACACUGGAGCCGCUGGGAACUAAUUUGUAUGCGAAAGUAUAUUGAUUAGUUUUGGAGUACUCGUGGUCG
Summed up: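 The eight P1ex-region nucleotides of an intron in the knt kanamycin-resistance gene on pET-22b(+) were all randomised and the library put into E. coli BL21(DE3). Six replicate transformations were grown overnight at 37°C or 30°C on LB agar with or without 25 μg/mL kanamycin, together with 100 μg/mL carbenicillin, 50 μM IPTG and 0.2% rhamnose. Colonies were pooled and amplicon-sequenced on an Illumina HiSeq 2500. Fitness from DiMSum is the error-weighted combination of wild-type-normalised replicate fold changes, kanamycin over none.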

± gives the uncertainty stated by the source.

As to AGGGAGCAAUAUUACGCGAG, the “self-splicing fitness (ln)” value is -3.35 ± 0.19 (30 °C) and -2.47 ± 0.19 (37 °C).
AGGGAGCAAUAUUACGCGUA: the “self-splicing fitness (ln)” value by setting is: (30 °C) -3.21 ± 0.31; (37 °C) -3.16 ± 0.23.
For AGGGAGCAAUAUUACGCUUA the same measures were -3.44 ± 0.24 and -1.62 ± 0.21.
With AGGGAGCAAUAUUACGGAAA, the “self-splicing fitness (ln)” value is, setting by setting: (30 °C) -2.4 ± 0.34; (37 °C) -2.34 ± 0.42.
For AGGGAGCAAUAUUACGGACU the same measures were -1.03 ± 0.16 and 0.483 ± 0.22.
For AGGGAGCAAUAUUACGGGUG the same measures were -4.12 ± 0.2 and -2.54 ± 0.29.
In the case of AGGGAGCAAUAUUACGGUGU, the “self-splicing fitness (ln)” value is, setting by setting: (30 °C) -4.33 ± 0.22; (37 °C) -2.37 ± 0.18.
As to AGGGAGCAAUAUUACGUAAC, the “self-splicing fitness (ln)” value is -2.23 ± 0.28 (30 °C) and -2.99 ± 0.29 (37 °C).
For AGGGAGCAAUAUUACGUCUA the same measures were -2.54 ± 0.21 and -2.26 ± 0.21.
As to AGGGAGCAAUAUUACGUGAC, the “self-splicing fitness (ln)” value is -2.06 ± 0.3 (30 °C) and -1.15 ± 0.39 (37 °C).
For AGGUAGCAAUAUUACGACAA the same measures were -0.614 ± 0.018 and -0.295 ± 0.035.
Take AGGUAGCAAUAUUACGAGGC: the “self-splicing fitness (ln)” value runs as follows: (30 °C) -3.696 ± 0.036; (37 °C) -2.87 ± 0.047.
For AGGUAGCAAUAUUACGAGUU, the “self-splicing fitness (ln)” value runs as follows: (30 °C) -2.033 ± 0.015; (37 °C) -0.955 ± 0.033.
Turning to AGGUAGCAAUAUUACGAUGU, the “self-splicing fitness (ln)” value was -0.919 ± 0.013 (30 °C) and -0.474 ± 0.033 (37 °C).
For AGGUAGCAAUAUUACGAUUA the same measures were -0.677 ± 0.016 and -0.383 ± 0.033.
Regarding AGGUAGCAAUAUUACGCAUG, the “self-splicing fitness (ln)” value (30 °C) was -2.022 ± 0.017 and the “self-splicing fitness (ln)” value (37 °C) was -1.22 ± 0.034.
For AGGUAGCAAUAUUACGCAUU the same measures were -1.862 ± 0.015 and -0.988 ± 0.034.
For AGGUAGCAAUAUUACGCCCG the same measures were -0.077 ± 0.022 and -0.122 ± 0.04.
For AGGUAGCAAUAUUACGCCGU the same measures were -1.24 ± 0.019 and -0.852 ± 0.035.
For AGGUAGCAAUAUUACGCCUA, the “self-splicing fitness (ln)” value was -0.599 ± 0.019 (30 °C) and -0.197 ± 0.035 (37 °C).
For AGGUAGCAAUAUUACGCGGU the same measures were -3.312 ± 0.024 and -2.14 ± 0.037.
With AGGUAGCAAUAUUACGGAUG, the “self-splicing fitness (ln)” value reads like this: (30 °C) -3.698 ± 0.028; (37 °C) -2.39 ± 0.037.
Take AGGUAGCAAUAUUACGUAGC: the “self-splicing fitness (ln)” value by setting is: (30 °C) -2.916 ± 0.021; (37 °C) -1.94 ± 0.036.
For AGGUAGCAAUAUUACGUGCC the same measures were -1.99 ± 0.022 and -1.22 ± 0.037.
For AGGUAGCAAUAUUACGUGCU the same measures were -0.841 ± 0.014 and -0.391 ± 0.033.
For AGGUAGCAAUAUUACGUGGA the same measures were -3.365 ± 0.027 and -2.61 ± 0.037.
In the case of AGGUAGCAAUAUUACGUUCA, the “self-splicing fitness (ln)” value is -0.556 ± 0.014 (30 °C) and -0.256 ± 0.033 (37 °C).
For AGGUAGCAAUAUUACGUUGC the same measures were -3.874 ± 0.031 and -3.06 ± 0.047.
With AGUAAGCAAUAUUACGAAAA, the “self-splicing fitness (ln)” value is -2.29 ± 0.38 (30 °C) and -1.89 ± 0.33 (37 °C).
Consider AGUAAGCAAUAUUACGAACA, for which the “self-splicing fitness (ln)” value was -0.711 ± 0.13 (30 °C) and -0.282 ± 0.14 (37 °C).
Regarding AGUAAGCAAUAUUACGAUAA, the “self-splicing fitness (ln)” value is -2.23 ± 0.32 (30 °C) and -1.4 ± 0.19 (37 °C).
For AGUAAGCAAUAUUACGAUAC the same measures were -3.12 ± 0.28 and -2.48 ± 0.38.
Consider AGUAAGCAAUAUUACGAUCC, for which the “self-splicing fitness (ln)” value is -0.71 ± 0.097 (30 °C) and 0.236 ± 0.15 (37 °C).
